Reference: the DeepSol protein solubility set

Assay: soluble on expression in E. coli; label from the status in PepcDB or PDB records

Row | Sequence | soluble on expression in E. coli
1 | MKKRNSMKLASLTVLLAGTTLFTPGFTVKAESTQSISNSSKVHDQKNRNGWKQVMQETIKIGAPGVLAKTSNKGKISSYTAGVADLSTKKPVKSDYRFRIGSVTKTFTATTVLQLVGENRVQLDDSIEKWLPGLIQGNGYDGNQITIRQLLNHTSGIAEYLKSKDADIMNSKKTYTAEEIVKIGLALPSDFSPGKGWSYSNTGYVILGMLIEKITGNSYAEEIEKRIIEPLDLPNTFLPGNSPVIPGKNHARGYVKMEETGELKDITYYNPSLANAAGDMISNADDLNKFFSSLLGGKLLKERELKEMLTTVPIEGKGIGDGYGLGIYETKLPNGVSVWGHGGSIPGFMTFAGGVIGGKHTFAVNVNSLGPVDILTQFDKMMQVEFNK | not soluble
2 | MKKTLALAATAAVLMLSACSSGFGGEKEEEITQKTAKSSEKAIVPKYNISDSYYKMVLPFKAGKARGLTTEQLNTRLDIDEFETGLMRLAQDSFSTDDYLFQEGQYLDEDTVLSWLARKKTGSDLKKAEKEDKNFKNEGLNPALPSSGSTEEKNESSPIYLASMLEHDYLVRKDKNSIQLGGVMIGLALNSVYYYREKTGDPQKEVEIKDSTLRQQGEKIAQEVINRLRKKDNLKNVPITVALYKQASKTSIVPGNFIAKTEVKAGSTDISNWDDINEKYVFYPADTTTAEKYPDDTEVFKRFKNSIEEYFPNYTGVVGTALYENDEMKKMKIDIPMQFYGKSEVVAFTQFLTGEVMDYYSKSSVDVEVNITSSDGQEAVIIRNAGDKEPTVHIYD | not soluble
3 | MKKTRTANLHHLYHEALPEDVKLTPRVEVDNVHQRRTTDVYEHALTITAWQQIYDQLHPGKFHGEFTEILLDEIQVFREYTGLALRQSCLVWPNSFWFGIPATRGEQGFIGAQGLGSAEIATRPGGTEFELSTPDDYTILGVVISEDVISRQATFLHNPERVLHMLRNQLALEVKEQHKAALWGFVQQALATFSESPETLHQPAVRKVLSDNLLLAMGTMLEEAKPIHSAESISHQGYRRLLSRAREYVLENMSEPLTVLDLCNQLHVSRRTLQNAFHAILGIGPNAWLKRIRLNAVRRELISPWSQSATVKDAAMQWGFWHLGQFATDYQQLFAEKPSLTLHQRMRQWA | not soluble
4 | MKKVIAGLAAASVAGVAVPGMDSAHAQVSNEALKEINGQTQTQTQTQTTVTETKTVETTSELKYTVTADVLNVRSGAGTGHNVISKVKSGQVLQVVGQENGWFKVNVNGQTGYVSGDFVTTGGKTGTTVQQGTGTYTVNVSSLNVRTGPSTSHTVLGSVNKGKTVQVVGEVQDWFKINFNGGTGYVSKDFVTKGGSAVSNETQQPTTNNNTTTVQTGGSYVVNTGALKVRTGPATYNAVIGGVTNGKVLNVTGAENGWYKINHNGRTGYVSADFVKFVKGGVNNVTNNNNVTNNVQQPGKDVQKPTTGGDTSSIAGFARSLNGSPYRTAGTTPAGFDCSGFIHYVLNQTGHKGARQTVAGYWSSKTKTSNPQPGDLVYFQNTYKSGPSHMGVYLGNGQFISAETDATGVRISSVSNSYWSKHLLGYTKAYLEHHHHHH | soluble
5 | MKKVLIAALIAGFSLSATAAQTIRFATEASYPPFESMDANNKIVGFDVDLANALCKEIDASCTFTNQAFDSLIPSLKFRRFDAVMAGMDITPEREKQVLFTTPYYDNSALFVGQQGKYTSVDQLKGKKVGVQNGTTHQKFIMDKHPEITTVPYDSYQNAKLDLQNGRIDAVFGDTAVVTEWLKANPKLAPVGDKVTDKDYFGTGLGIAVRQGNTELQQKFNTALEKVKKDGTYETIYNKWFQK | not soluble
6 | MKKVLILSTSTGYGHNQAANSLMELIKNDDTEILVHDFLKENRFFDRSIVNGYDLCASSLGTLYGLLYKISNIKFINNLVSFLFLPVANKLAKFIHSFNPDLIITTHPLAVSILSYLKKRQIIKVPVISVVTDFKCHYTYVSKIIDHYIVACDFTKENLASKGIPKERISPFGIPVKQDFYKEDYHNYVENIIQSPLNILLMGGGMGLDNISKVLKTLIKNENPLNLTIVCGNNAELKEDLCKEYGHIKGNKKLNILGYTTEIPKIMKSSDLIITKPGGLTTTESLLSHLPMIIPFIIPGQESENREFLSKSNCAITINHLEELNKVINDLNKDNNKLINMRKSILDVLSSYSPEGTIKLCTKMLNDSYNKRRYLEHHHHHH | soluble
7 | MKKVLIVLLVLLTSFGFSENLDKYESKRVFDKSIQFILDGNYEKLKNDTEMSRVAGNITDAAEAIFAKARPMLKEHKYKVIDVKEKKDISELTVKVEYKVYENVSQEESENFMIKFQEELDEETEEAADIYDKKVQKLLQDNIKSKGIIKDKIIKVYMDKEYGYWDLATDKNEDLLLTLFSVIDSLGLY | not soluble
8 | MKKYSILLLPFILASCAPVSESQFTEQRLSELEIKVAKLEERQEKIEEQLEEINKRLDYITKSIAKREIKSYKEPEEEKPPFEEVKSTEDEKAEYENALELYKMKQLNEARDAFVEFIKKYPNSKYTDNAYFWLGKTFYELGNTERAKQIFNVLIKKCKSGELPDCNKLPDTYFMLVKISLDEGNIEEANRYLSILEEKFPDAEATQRAKELIYKTP | not soluble
9 | MKLANTKGERKLEQKLYYTDAYKQDFTTKVIKQDYDKDGNLYVILNETVFYPTGGGQPHDTGTLNGIAVLGVEEVDEEIRHFIAEQLHTEEVEGKINWERRFDHMQQHAAQHILSAAFWDYFNIPTIGFHLGKETVTIDLETENLHAETVEKAVQIANKIVFENHPILIKWMNLEEAKTLPLRKEPTMTENIRVVMIENFDYNGCGGTHPKRTGEVGPIQVLGWERNKGGIRLTFIAGWRTLKLMGQQQQIMKDVSKQLNSSEADIPAKVAQLLTSQKENKKAMQTMTEKLLYTEANELLQQPTKIHAGILISKVFTNRSMQEIAKLSAIITEQQEHAITYFVIENEDKLQCILACGKTVTLDMNALLKEALPTIEGKGGGNKKSARGGGKAMMSGDEFLNQLISSLQSAV | not soluble
10 | MKLASPKPFTFEGGDRAVLLLHGFTGNSADVRMLGRFLEKKGYTCHAPIYKGHGVPPEELVHTGPEDWWQDVTEAYQLLKDKGFEKIAVVGLSLGGVFSLKLGYTVPVLGVVPMCAPMYIKSEETMYQGILAYAREYKKREQKSPEQIEQEMLEFQKTPMNTLKALQQLIADVRNNVDMIYVPTFVVQARHDEMINTDSANIIYNGVESTLKDIKWYEDSTHVITLDKQRDELHEDVYNFLEQLDW | not soluble
11 | MKLDFSSGAKPLWSQMANIIKKRIEDGEYEIGCTLPSEMSFADEFNVSRITVRQALNRLMTDGYILRQRGKGTIVKRDKTSFSTRMQSSFKQLQDEYDKTTKTLISVNNVKASEDVAEVFDINPGDNVIMLERSVESKGKIITIYHNYISPKVGASLKDDFTGSFYKYLEMKGFYITSAKEVISAKISTAKDKEVFGFSNDRAMLLKTKYGYSDGVPVEITYGTYIADDYNIVIELV | not soluble
12 | MKLEDLPKYYSPKSPGLTDASASTSKDALSITDVMAAQGMTQNRAEMGFSAFLGKMGISMNDRARATELLADYALSRCDRVAALRKLPAEIKPVVMRIMASYAFEDYARSAASKKQCPCCYGEKFIESVVFTNKVQYPDGKPPVWAKCTKGVYPSYWEEWKKVREVVKVACPECGGKGEVSTACKDCRGRGVAIHREESVKRGMPVIRDCQRCGGRGYERLPSTEVFNAICEVTNQITRASWEKTVKKFYDALVTRFDIEEAWAERQLKKVTR | not soluble
13 | MKLHEHQAKEIFAKYGIPVPEGKVAFSLKEAKEVAEELGEFPLVVKAQIHCGGRGKAGGVKIVKDMDELEKAVESLLGKVLKTFQCPDGKPVNRVLIEKATNIDKEYYLAITLDRSKSKPVIMASAAGGMEIEEIVKENPEAIIIETIDPELGLMPYQARELAFKLNLPVKEFASIALKLYQIYSDLDASLVEINPLVLTKEGNLIALDAKLDIDDNALFRHKDLEEMEDETQLPQLEVEAKKYGLNYIKLNGNIGCMVNGAGLAMATMDIIKLAGGEPANFLDVGGGANVEQIANAFRILMADPDVKAVFINIFGGILRVDRLAQGLIEASKMVELRVPIVARLEGTNVEEGKRMLQESGLNFIIAEDMWDGAKKAVEIANKQS | soluble
14 | MKLIVAVVQDQDSNRLLKTLTDHNFRVTKLATTGGFLKSGNTTFMIGVEDIRVNKALSLIKENGQKRDQMIAPVSPMGGNADSYVPYPVEVEVGGATVFVLPVDEFHQFLEHHHHHH | soluble
15 | MKLIVKVFPEITIKSPPVRKKFIRQLGKNIRTVLRELDADIVVGGVWDNLEVETRLTDPKVLQGIRDRLSCMPGIANFLQVAEYPLGDMDDVVAKCKLHYADLLPGTMFSVRCKRAGRHDFSSMDVEKYVGSQLRMQCGAAGIELKKPDLVVRMEIRDQRLFVVHDQHKGMGGYPLGALEQTLVLMSGGFDSTVAAYQIMRRGLMAHFCFFNLGGRAHELGVMEVAHFIWKKYGSSQRVLFVSVPFEEVLGEILQKVDNSHMGVVLKRMMLRAASAVADRLEIDVLVTGEAISQVASQTLPNLSLIDAATDKLVLRPLVATHKQDIVDLATEIGTADFARHMPEYCGVISVNPKTNAKRNRVEYEEQQFDMAILEQALERAKLVSIDRVIDDLSRNIDIEEVSQALAGQVIIDIRHPDAQEDQPLQVPGVEIQTLPFYALNSRFKALDDTRQYLLYCDKGVMSRLHAHHLLSEGHANVRVYRPS | not soluble
16 | MKLKELVKQFIPMNYWNTRRKASIIRQQGKVADFWAPILKAYYNGEIERYSLKPKKKLGTQKVIWQYWGQGIDKDELPEIIQICFDSVDRNKNDYQVIRLTDITISEYIDLPDFVWRKREYVQFTRTFFSDLLRVALLSTYGGVWLDATILLTGSIPAVYEKTDFFMYQRSDEEKNKKYWENVYAYYFGWEPNFKVRMLSSILFAQKESEIISTLTDLLLYFWKTQDSLPDYFCFQILFNELVANYRPAENCPIVNDCIPHIIQTKINGTYDDVSFEEALELSNIHKMTYFDAAAMIRLKMVLRLARNALEHHHHHH | soluble
17 | MKLKLYLIPLLASGIILSACSSTTSQVISSLSSAQKYFEANKGELNKNNVINILKDGYNSDPNKTVNALLAGWKYTLMDQKLLENNLDPSRFKNTFGPNKNKDDVTPNISEKGLFLNETFTGLGSQIAEVFNVQKQIVSGFSYSWTSPKSFKVNIHIKMEGMINEKSKETIKSFLSNKDSNGSNSVEESEYTGDKAKFTADFIFSYTPPTGGTRSLTDKSFDVITNMINFPADVKIDVNTSHNKLNELLEKNDQVKRMKSRTFNGRNIDLLPFFYYALL | soluble
18 | MKLLFTSAFTQMFGYSNHMDQASNCQSTRNKIIKMMKKEEFPSGFQVPLHYPKYSKSDYEVMDDLRLDLLLKQYGFSFEGSLEDKRVFAIESFLWPDQL | soluble
19 | MKLLRYGPVGEERPALLDELGEIRDLSAHIEDISGKFLLPATLYKLRQLDSASLPLVRGEQRLGACVGHVGKFICVGLNYADHAAETGAEIPQEPVIFNKWTSAIIGPNDDIEIPRNSVKTDWEVELGVVIGTGGRYIGEANAMSYVAGYCVVNDISEREFQLEHGGTWDKGKGCDTFGPIGPWLVTRDEIPDPHQLGLWLDVDGRRYQNGSTRTMIFKIPQIISYLSRFMSLQSGDVISTGTPPGVGLGQKPPVYLHAGQIMRLGIEGLGEQCQKTIQA | not soluble
20 | MKLLSSIEQACDICRLKKLKCSKEKPKCAKCLKNNWECRYSPKTKRSPLTRAHLTEVESRLERLEF | soluble
21 | MKLNAIHHVAIIVSDYHLSKDFYVNKLGFEIIRENYRPDKHDYKLDLSCGRIELEIFGKVTSDPNYQAPPKRVSEPEFKSEACGLRHLAFRVTNIESYVDDLKSLGIPVEPIRHDDYTGEKMTFFFDPDGLPLELHE | not soluble
